In the series the test system is [H][C@@]12COP(=O)(O)O[C@@]1([H])[C@@H](O)[C@H](n1cnc3c(=O)[nH]c(N)nc31)O2. Put plainly: [3H]-cGMP hydrolysis, snake venom nucleotidase, anion-exchange separation. It is filed as biochemical, Homo sapiens. The note with it: [3H]-cGMP mixed with unlabelled cGMP […], […] MgCl2, pH […].

The values below come from paper PMC5434896, “Inhibition of PDE5A1 guanosine cyclic monophosphate (cGMP) hydrolysing activity by sildenafil analogues that inhibit cellular cGMP efflux” (The Journal of Pharmacy and Pharmacology, 2017).

With PDE5A1 (Homo sapiens), the Km was found to be 1.7 ± 0.4 µM.
